Reference: patent US20260092111A1 (MOR RESEARCH APPLICATIONS, published 2026)
“And” between values parts separate entries of the source, which are not always exact repeats. Identical values can stand only once.

How the values were obtained:
[1] = target: T1, protein containing the extracellular domain of mouse TREM2 fused to Fc (mouse, UniProt Q99NH8 19-171); experiment: SPR (Biacore)
T1 construct: extracellular domain; also called Mouse TREM2-Fc; not shown: Fc
T1 sequence (looked up): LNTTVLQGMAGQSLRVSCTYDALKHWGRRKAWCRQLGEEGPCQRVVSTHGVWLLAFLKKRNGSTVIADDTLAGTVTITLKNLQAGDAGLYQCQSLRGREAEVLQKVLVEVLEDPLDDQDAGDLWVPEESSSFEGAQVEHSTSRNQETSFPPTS
Source text: (§1) A Surface Plasmon Resonance (Biacore) assay was used to assess the binding of humanized CGX101 (hCGX101), an IgG4 antibody, to the extracellular domain of human TREM2 and to a protein containing the extracellular domain of mouse TREM2 fused to Fc.

[2] = target: T2, extracellular domain (ECD) of human TREM2 (human, UniProt Q9NZC2 19-174); experiment: SPR (Biacore)
T2 construct: also called Human TREM2-ECD; human TREM2-extracellular domain (ECD)
T2 sequence: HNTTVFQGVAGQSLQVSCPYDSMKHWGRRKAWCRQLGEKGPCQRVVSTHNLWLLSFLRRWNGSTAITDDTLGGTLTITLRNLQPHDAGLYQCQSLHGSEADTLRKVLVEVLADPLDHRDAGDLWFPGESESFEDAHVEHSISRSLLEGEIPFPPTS
Source text: as §1

B1: humanized CGX101 (hCGX101), an IgG4 antibody (antibody, V domains shown)
VH: EVQLVQSGAEVKKPGESLKISCKGSGYTFTDYNIHWVRQMPGKGLEWMGYIYPKNGGTGYTQKFKSQVTISVDNSISTAYLQWSSLKASDTAMYYCARRTARASWFAFWGQGTLVTVSS
VL: DIVMTQSPATLSVSPGERATLSCKSSQSLLYSSNQKNYLAWYQQKPGQAPRVLIYWASTRESGIPARFSGSGSGTEFTLTISSLQSEDFAVYYCQQYYNYPFTFGQGTKLEIK
notes: also called hIgG4; huIgG4
Work on B1 yielded a Kd [1] of 18.6 nM, a koff [1] of 0.00106 s⁻¹ and a kon [1] of 57000 M⁻¹ s⁻¹. For the same binder, the Kd [2] was 5.74 nM and 5.73 nM, the koff [2] was 0.000715 s⁻¹ and the kon [2] was 125000 M⁻¹ s⁻¹.
